# From publication PMC9439264 (Nature Communications, 2022)
# T1: HAhr^CA (head region of CA4/2009 HA, degraded HA monomer in the crystal) (Influenza A virus A/California/04/2009 …, strain)
# T1 chain: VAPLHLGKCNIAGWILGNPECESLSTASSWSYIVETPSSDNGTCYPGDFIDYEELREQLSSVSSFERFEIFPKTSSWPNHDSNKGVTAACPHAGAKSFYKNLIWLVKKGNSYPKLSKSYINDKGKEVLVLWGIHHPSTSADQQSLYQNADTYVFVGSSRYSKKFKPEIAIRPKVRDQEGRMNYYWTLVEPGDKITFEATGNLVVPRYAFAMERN
# B1: 12H5 Fab (mouse antibody) (Fab, V domains shown)
# VH: QIQLVQSGPELKKPGETVRISCKASGYTFTKNGMNWVQQAPGKGLKWVGWINTYTGEPSYADDFKGRFAFSLETSASTAYLQINNLKNEDMAAYFCARMVRDAMDFWGQGTSVTVSS
# VL: DIVLTQSPASLAVSLGQRATISCKASQSVDFDGYNYLNWYQQKPGQPPKLLIYAASNLESGIPARFSGSGSGTDFTLNIHPVEEEDAATYFCQQSNEDPYTFGGGTKLEIK
# notes: source: papain digestion of mAb 12H5 (mouse ascites, protein A), purified with DEAE-5PW
# Tests used:
# [1] = target: T1, HAhr^CA (head region of CA4/2009 HA, …); test: crystal structure; conditions: both partners purified
# [2] = target: T2, HA ectodomain of A/California/04/2009 (H1N1), recombinant (Influenza A virus A/California/04/2009 …, strain); test: SEC; conditions: both partners purified
# T2 construct: source: baculovirus (pAcGP67B), H5 insect cells, supernatant purified with Ni-NTA
binder,measurement,setting,value
B1,binding result,[1],binds
same,binding result,[2],binds
